# Measured values as given in PMC10786891, “Massively parallel profiling of RNA-targeting CRISPR-Cas13d”.
# Where a chain is given by its changes, count along the chain named. Names and notes keep the numbering of the source.
# T1: EsCas13d, nuclease-dead (Eubacterium siraeum, UniProt B0MS50, R295A;H300A;R849A;H854A)
# T1 sequence: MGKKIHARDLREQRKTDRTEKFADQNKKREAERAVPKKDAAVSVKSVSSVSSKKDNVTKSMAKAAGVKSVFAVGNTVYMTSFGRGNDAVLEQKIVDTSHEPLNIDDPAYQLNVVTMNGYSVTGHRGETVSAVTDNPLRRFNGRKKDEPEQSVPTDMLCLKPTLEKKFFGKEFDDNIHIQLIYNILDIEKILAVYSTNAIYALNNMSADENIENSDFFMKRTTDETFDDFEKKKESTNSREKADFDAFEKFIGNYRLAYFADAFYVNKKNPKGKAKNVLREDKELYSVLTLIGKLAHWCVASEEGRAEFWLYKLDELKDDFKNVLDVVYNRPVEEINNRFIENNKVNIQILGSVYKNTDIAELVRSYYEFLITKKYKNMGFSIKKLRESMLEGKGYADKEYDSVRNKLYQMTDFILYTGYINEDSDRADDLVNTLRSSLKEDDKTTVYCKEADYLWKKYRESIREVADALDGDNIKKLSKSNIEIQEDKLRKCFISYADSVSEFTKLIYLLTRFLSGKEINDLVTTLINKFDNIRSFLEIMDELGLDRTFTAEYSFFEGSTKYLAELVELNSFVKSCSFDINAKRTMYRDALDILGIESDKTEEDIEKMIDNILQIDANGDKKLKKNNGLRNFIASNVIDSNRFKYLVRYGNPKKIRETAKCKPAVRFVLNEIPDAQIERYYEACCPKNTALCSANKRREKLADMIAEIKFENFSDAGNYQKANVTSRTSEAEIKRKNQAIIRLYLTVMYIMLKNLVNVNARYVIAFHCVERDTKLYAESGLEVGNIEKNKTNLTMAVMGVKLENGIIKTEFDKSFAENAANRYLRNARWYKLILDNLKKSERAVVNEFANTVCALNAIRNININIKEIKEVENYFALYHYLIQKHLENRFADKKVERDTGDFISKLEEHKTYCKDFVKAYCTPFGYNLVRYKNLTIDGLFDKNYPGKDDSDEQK
# B1: target 1 del14,del19 (mixed)
# RNA 1: CACCCGUGCAAAAAUGCAGGGGUCUAAAACUGAGCGGAUAACCUCUCUAUGG
# RNA 2: GGGAAUGGAUCCACAUCUACGAAUUCGUACCAAGAGGGUUAUCCGCUCACCGAGAUCGGAAGAGCACACGU
# B2: target 3 A12C,U22A (mixed)
# RNA 1: CACCCGUGCAAAAUUGCAGGGGUCUAAAACGACCUGAAUAUUUCAGAUCAAA
# RNA 2: GGGAAUGGAUCCACAUCUACGAAUUCGUUAUUGAUCUGACAUAUUCAGGUCUGCAGAUCGGAAGAGCACACGU
# B3: target 3 insU 3' of 1 (mixed)
# RNA 1: B2 RNA 1
# RNA 2: GGGAAUGGAUCCACAUCUACGAAUUCGUUUUUGAUCUGAAAUAUUCAGGUCUUGCAGAUCGGAAGAGCACACGU
# B4: target 3 complement block 2-7 (mixed)
# RNA 1: B2 RNA 1
# RNA 2: B2 RNA 2 with A30U, C40A, U45A, C46G, A47U, G48C, G49C, U50A
# B5: target 3 insU 3' of 4,insG 3' of 2 (mixed)
# RNA 1: B2 RNA 1
# RNA 2: GGGAAUGGAUCCACAUCUACGAAUUCGUUUUUGAUCUGAAAUAUUCAGUGUGCUGCAGAUCGGAAGAGCACACGU
# B6: target 3 U8G,A18G (mixed)
# RNA 1: B2 RNA 1
# RNA 2: B2 RNA 2 with A30U, A34G, C40A, U44G
# B7: target 3 G4C,A18G (mixed)
# RNA 1: B2 RNA 1
# RNA 2: B2 RNA 2 with A30U, A34G, C40A, G48C
# B8: target 3 insA 3' of 6,insA 3' of 2 (mixed)
# RNA 1: B2 RNA 1
# RNA 2: B5 RNA 2 with G48A, U49G, G52A
# B9: target 3 A11C,A18C (mixed)
# RNA 1: B2 RNA 1
# RNA 2: B2 RNA 2 with A30U, A34C, C40A, A41C
# B10: target 3 insG 3' of 9,insG 3' of 2 (mixed)
# RNA 1: B2 RNA 1
# RNA 2: B5 RNA 2 with U44G, C46U, A47C, G48A, U49G
# B11: target 3 U8C,U22C (mixed)
# RNA 1: B2 RNA 1
# RNA 2: B2 RNA 2 with A30C, C40A, U44C
# B12: target 1 C2G,C7G (mixed)
# RNA 1: B1 RNA 1
# RNA 2: GGGAAUGGAUCCACAUCUACGAAUUCGUACCAUAGAGAGGUUAUGCGCUGACCGAGAUCGGAAGAGCACACGU
# B13: target 3 insU 3' of 16,insC 3' of 4 (mixed)
# RNA 1: B2 RNA 1
# RNA 2: GGGAAUGGAUCCACAUCUACGAAUUCGUUUUUGAUCUUGAAAUAUUCAGCGUCUGCAGAUCGGAAGAGCACACGU
# B14: target 3 insU 3' of 5,insU 3' of 5 (mixed)
# RNA 1: B2 RNA 1
# RNA 2: B5 RNA 2 with G48U, U51G, G52U
# B15: target 3 U2G,G3A (mixed)
# RNA 1: B2 RNA 1
# RNA 2: B2 RNA 2 with A30U, C40A, G49A, U50G
# B16: target 3 U2A,C6G (mixed)
# RNA 1: B2 RNA 1
# RNA 2: B2 RNA 2 with A30U, C40A, C46G, U50A
# B17: target 3 insA 3' of 7,insC 3' of 5 (mixed)
# RNA 1: B2 RNA 1
# RNA 2: B5 RNA 2 with C46A, A47C, G48A, U49C, U51G, G52U
# B18: target 3 insC 3' of 8,insU 3' of 5 (mixed)
# RNA 1: B2 RNA 1
# RNA 2: B5 RNA 2 with U45C, C46U, A47C, G48A, U51G, G52U
# B19: target 3 insG 3' of 6,insA 3' of 1 (mixed)
# RNA 1: B2 RNA 1
# RNA 2: B5 RNA 2 with A47G, G48A, U49G, G52C, C53A
# B20: target 3 U2A (mixed)
# RNA 1: B2 RNA 1
# RNA 2: B2 RNA 2 with A30U, C40A, U50A
# B21: target 3 insG 3' of 6,insC 3' of 2 (mixed)
# RNA 1: B2 RNA 1
# RNA 2: B5 RNA 2 with A47G, G48A, U49G, G52C
# B22: target 3 insU 3' of 13,insG 3' of 2 (mixed)
# RNA 1: B2 RNA 1
# RNA 2: B13 RNA 2 with U38G, G39A, A40U, C50G, G51U, U52G
# B23: target 1 insU 3' of 20,insC 3' of 20 (mixed)
# RNA 1: B1 RNA 1
# RNA 2: GGGAAUGGAUCCACAUCUACGAAUUCGUACCAUCUAGAGAGGUUAUCCGCUCACCGAGAUCGGAAGAGCACACGU
# B24: target 3 insU 3' of 4,insU 3' of 3 (mixed)
# RNA 1: B2 RNA 1
# RNA 2: B5 RNA 2 with G52U
# B25: target 3 insG 3' of 6,insG 3' of 1 (mixed)
# RNA 1: B2 RNA 1
# RNA 2: B5 RNA 2 with A47G, G48A, U49G, G52C, C53G
# B26: target 3 insG 3' of 9,insG 3' of 8 (mixed)
# RNA 1: B2 RNA 1
# RNA 2: B5 RNA 2 with U44G, C46G, A47U, G48C, U49A, U51G, G52U
# B27: target 3 del6,del22 (mixed)
# RNA 1: B2 RNA 1
# RNA 2: GGGAAUGGAUCCACAUCUACGAAUUCGUUUUGAUCUGAAAUAUUAGGUCUGCAGAUCGGAAGAGCACACGU
# B28: target 3 G19C,U20G (mixed)
# RNA 1: B2 RNA 1
# RNA 2: B2 RNA 2 with A30U, U32G, G33C, C40A
# B29: target 3 insA 3' of 4,insU 3' of 3 (mixed)
# RNA 1: B2 RNA 1
# RNA 2: B5 RNA 2 with U49A, G52U
# B30: target 3 complement block 1-6 (mixed)
# RNA 1: B2 RNA 1
# RNA 2: B2 RNA 2 with A30U, C40A, C46G, A47U, G48C, G49C, U50A, C51G
# B31: target 3 insG 3' of 6,insU 3' of 1 (mixed)
# RNA 1: B2 RNA 1
# RNA 2: B5 RNA 2 with A47G, G48A, U49G, G52C, C53U
# B32: target 3 G4A,A11C (mixed)
# RNA 1: B2 RNA 1
# RNA 2: B2 RNA 2 with A30U, C40A, A41C, G48A
# Target: T1, EsCas13d, nuclease-dead
# Experiment: crRNA (strand 1, pre-loaded); Mg2+; 40 mM Tris-HCl pH 7.5, 150 mM NaCl, 6 mM MgCl2, 1 mM DTT, 0.1% Tween-20, 0.2 mg/ml BSA; 25 C; 10 min per concentration, then washed
# Details: tags: His6-TwinStrep-SUMO cleaved; N-terminal SNAP kept (SNAP-Surface 488); label: 3' end held by stalled T7 RNA polymerase
row,Binder,Kd [µM]
1,B1,0.079 ± 0.025
2,B2,0.071 ± 0.026
3,B3,0.0855 ± 0.0185
4,B4,0.0545 ± 0.007
5,B5,0.0195 ± 0.00235
6,B6,0.0725 ± 0.0145
7,B7,0.0344 ± 0.00395
8,B8,0.0042 ± 0.00055
9,B9,0.039 ± 0.004
10,B10,0.0635 ± 0.0145
11,B11,0.046 ± 0.0085
12,B12,0.0089 ± 0.0004
13,B13,0.0845 ± 0.027
14,B14,0.00387 ± 0.00032
15,B15,0.044 ± 0.0065
16,B16,0.037 ± 0.005

row,Binder,Kd [µM]
1,B17,0.0282 ± 0.00185
2,B18,0.0795 ± 0.015
3,B19,0.076 ± 0.034
4,B20,0.0243 ± 0.0018
5,B21,0.074 ± 0.027
6,B22,0.0355 ± 0.007
7,B23,0.075 ± 0.013
8,B24,0.0152 ± 0.0018
9,B25,0.025 ± 0.0105
10,B26,0.057 ± 0.006
11,B27,0.0194 ± 0.0019
12,B28,~0.049
13,B29,0.072 ± 0.0185
14,B30,0.0285 ± 0.0045
15,B31,0.0565 ± 0.015
16,B32,0.0485 ± 0.0115
